B1: SH2 domain-containing protein 1A (Homo sapiens), O60880-1 (parent)
chain: MDAVAVYHGKISRETGEKLLLATGLDGSYLLRDSESVPGVYCLCVLYHGYIYTYRVSQTETGSWSAETAPGVHKRYFRKIKNLISAFQKPDQGIVIPLQYPVEKKSSARSTQGTTGIREDPDVCLKAP
partner: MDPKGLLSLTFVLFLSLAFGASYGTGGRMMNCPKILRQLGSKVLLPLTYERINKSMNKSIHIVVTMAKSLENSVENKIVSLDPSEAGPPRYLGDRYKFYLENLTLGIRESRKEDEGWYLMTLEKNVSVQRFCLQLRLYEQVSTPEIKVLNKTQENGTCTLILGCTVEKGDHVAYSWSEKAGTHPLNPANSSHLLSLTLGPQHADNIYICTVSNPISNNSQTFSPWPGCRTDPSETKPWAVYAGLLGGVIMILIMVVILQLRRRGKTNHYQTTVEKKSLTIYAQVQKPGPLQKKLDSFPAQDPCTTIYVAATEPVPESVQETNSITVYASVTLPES

Variants of: B1
Settings: with slaf1_human SLAMF1, Q13291

| Variant | effect of a mutation on the interaction |
| --- | --- |
| MDAVAVYHGKISRETDEKLLLATGLDGSYLLRDSESVPGVYCLCVLYHGYIYTYRVSQTETGSWSAETAPGVHKRYFRKIKNLISAFQKPDQGIVIPLQYPVEKKSSARSTQGTTGIREDPDVCLKAP [G16D] | disrupting interaction strength |

From IntAct's records for PubMed 15841490
